Data published in publication PMC10454913, “Neurohypophysial and paracrine vasopressinergic signaling regulates aquaporin trafficking to hydrate marine teleost oocytes” (Frontiers in Endocrinology, 2023).
Ends that are not written are not given here.

How the values were obtained:
[1] = system: X. laevis oocytes expressing the seabream Oxtrb and Aqp1aa; conditions: not told
[2] = molecular target: seabream Oxtrb (Sparus aurata, UniProt R9WVY7); experiment: Activation of seabream Oxtrb in transfected HEK293T cells (pCRE-luc / pSRE-luc reporters, Fluo-4 AM Ca2+); format: cell-based, gilthead seabream (Sparus aurata)

CYISNCPIG-NH2 (ends and bridges not checked) [Oxt, synthetic teleost nonapeptide oxytocin (formerly isotocin)]
oocyte permeability (P f) and channel accumulation in the plasma membrane [1]: reduction of oocyte permeability
pCRE-mediated luciferase activity (cAMP) ([2]; HEK293T cells expressing Oxtrb): did not induce measurable increases
pSRE-induced luciferase activity (PKC activation) ([2]; HEK293T cells expressing Oxtrb, 10^-12 to 10^-5 M): concentration-dependent increase
intracellular Ca2+ concentration ([Ca2+]i) ([2]; HEK293T cells expressing Oxtrb, Fluo-4 AM): concentration-dependent increase
EC50 ([2]; Oxt on Oxtrb, HEK293T, read-out: approximate EC50 on cognate receptor): ~10 nM
